Test results as given in publication PMC9947421.

Columns and labels:
Assay in all cases: AP-MS
[1] = target: transcriptional co-activator with PDZ-binding motif (TAZ) (UniProt Q9GZV5); details: read off a plot
[2] = target: Rap1-interacting factor 1 (RIF1) (UniProt Q5UIP0)
[3] = target: DNA-dependent protein kinase, catalytic subunit (PRKDC/DNAPKcs) (UniProt P78527)
[4] = target: poly(ADP-ribose) polymerase 1 (PARP1) (UniProt P09874)
[5] = target: VGLL4 (UniProt Q14135); details: read off a plot
Chain of UniProt Q14135 (Q14135 whole entry): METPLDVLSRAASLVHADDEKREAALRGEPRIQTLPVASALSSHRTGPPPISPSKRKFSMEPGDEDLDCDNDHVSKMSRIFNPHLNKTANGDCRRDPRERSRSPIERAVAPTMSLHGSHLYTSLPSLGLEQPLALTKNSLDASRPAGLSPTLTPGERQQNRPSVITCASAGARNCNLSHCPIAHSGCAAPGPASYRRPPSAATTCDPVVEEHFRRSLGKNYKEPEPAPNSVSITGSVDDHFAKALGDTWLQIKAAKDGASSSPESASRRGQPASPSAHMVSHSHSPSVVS

[6] = target: X-ray repair cross-complementing protein 6 (XRCC6) (UniProt P12956); details: HEK293 cells
Chain of UniProt P12956 (P12956 whole entry): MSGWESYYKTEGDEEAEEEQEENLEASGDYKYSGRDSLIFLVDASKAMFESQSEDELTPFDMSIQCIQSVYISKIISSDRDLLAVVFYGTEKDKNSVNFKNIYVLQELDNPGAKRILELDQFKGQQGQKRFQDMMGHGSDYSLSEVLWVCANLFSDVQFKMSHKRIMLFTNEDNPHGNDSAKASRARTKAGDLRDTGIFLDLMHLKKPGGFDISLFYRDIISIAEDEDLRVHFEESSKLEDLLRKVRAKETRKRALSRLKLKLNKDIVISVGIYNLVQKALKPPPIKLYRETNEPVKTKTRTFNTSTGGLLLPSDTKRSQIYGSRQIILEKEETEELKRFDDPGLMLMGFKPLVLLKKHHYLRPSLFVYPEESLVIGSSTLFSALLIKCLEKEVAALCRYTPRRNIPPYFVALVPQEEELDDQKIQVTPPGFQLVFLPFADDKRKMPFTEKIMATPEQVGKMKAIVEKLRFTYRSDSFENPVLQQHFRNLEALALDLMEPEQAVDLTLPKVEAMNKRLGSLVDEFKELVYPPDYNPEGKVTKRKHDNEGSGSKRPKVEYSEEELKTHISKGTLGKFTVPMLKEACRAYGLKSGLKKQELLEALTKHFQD

[7] = target: Yes-associated protein (YAP) (UniProt P46937); details: read off a plot

Chain of UniProt P09874 (P09874 whole entry): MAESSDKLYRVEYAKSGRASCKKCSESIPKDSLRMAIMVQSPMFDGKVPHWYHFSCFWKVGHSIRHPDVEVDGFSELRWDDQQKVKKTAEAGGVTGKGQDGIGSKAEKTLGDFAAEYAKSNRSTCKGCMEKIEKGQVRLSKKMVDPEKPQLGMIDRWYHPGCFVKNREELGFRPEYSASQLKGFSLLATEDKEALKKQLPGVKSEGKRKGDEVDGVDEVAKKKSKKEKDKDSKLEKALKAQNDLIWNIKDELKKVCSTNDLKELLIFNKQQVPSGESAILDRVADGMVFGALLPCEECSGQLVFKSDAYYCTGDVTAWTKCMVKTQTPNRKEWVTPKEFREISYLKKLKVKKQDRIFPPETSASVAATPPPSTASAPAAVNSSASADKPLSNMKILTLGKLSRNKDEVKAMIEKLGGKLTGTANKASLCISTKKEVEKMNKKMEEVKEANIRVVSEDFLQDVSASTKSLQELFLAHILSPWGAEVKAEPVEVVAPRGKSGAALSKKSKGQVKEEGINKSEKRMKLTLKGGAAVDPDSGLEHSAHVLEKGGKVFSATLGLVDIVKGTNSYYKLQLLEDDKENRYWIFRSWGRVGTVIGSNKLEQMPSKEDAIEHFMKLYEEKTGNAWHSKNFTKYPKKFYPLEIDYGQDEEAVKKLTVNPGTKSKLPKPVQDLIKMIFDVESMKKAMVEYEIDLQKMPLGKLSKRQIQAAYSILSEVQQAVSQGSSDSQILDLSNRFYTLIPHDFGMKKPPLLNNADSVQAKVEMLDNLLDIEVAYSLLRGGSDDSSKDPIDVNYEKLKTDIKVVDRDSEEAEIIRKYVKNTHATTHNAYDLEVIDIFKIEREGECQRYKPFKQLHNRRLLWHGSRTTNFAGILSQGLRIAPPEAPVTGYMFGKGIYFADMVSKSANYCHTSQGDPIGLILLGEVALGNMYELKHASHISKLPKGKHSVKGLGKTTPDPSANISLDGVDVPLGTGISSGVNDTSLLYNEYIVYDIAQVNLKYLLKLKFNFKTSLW
Chain of UniProt Q5UIP0 (Q5UIP0 whole entry): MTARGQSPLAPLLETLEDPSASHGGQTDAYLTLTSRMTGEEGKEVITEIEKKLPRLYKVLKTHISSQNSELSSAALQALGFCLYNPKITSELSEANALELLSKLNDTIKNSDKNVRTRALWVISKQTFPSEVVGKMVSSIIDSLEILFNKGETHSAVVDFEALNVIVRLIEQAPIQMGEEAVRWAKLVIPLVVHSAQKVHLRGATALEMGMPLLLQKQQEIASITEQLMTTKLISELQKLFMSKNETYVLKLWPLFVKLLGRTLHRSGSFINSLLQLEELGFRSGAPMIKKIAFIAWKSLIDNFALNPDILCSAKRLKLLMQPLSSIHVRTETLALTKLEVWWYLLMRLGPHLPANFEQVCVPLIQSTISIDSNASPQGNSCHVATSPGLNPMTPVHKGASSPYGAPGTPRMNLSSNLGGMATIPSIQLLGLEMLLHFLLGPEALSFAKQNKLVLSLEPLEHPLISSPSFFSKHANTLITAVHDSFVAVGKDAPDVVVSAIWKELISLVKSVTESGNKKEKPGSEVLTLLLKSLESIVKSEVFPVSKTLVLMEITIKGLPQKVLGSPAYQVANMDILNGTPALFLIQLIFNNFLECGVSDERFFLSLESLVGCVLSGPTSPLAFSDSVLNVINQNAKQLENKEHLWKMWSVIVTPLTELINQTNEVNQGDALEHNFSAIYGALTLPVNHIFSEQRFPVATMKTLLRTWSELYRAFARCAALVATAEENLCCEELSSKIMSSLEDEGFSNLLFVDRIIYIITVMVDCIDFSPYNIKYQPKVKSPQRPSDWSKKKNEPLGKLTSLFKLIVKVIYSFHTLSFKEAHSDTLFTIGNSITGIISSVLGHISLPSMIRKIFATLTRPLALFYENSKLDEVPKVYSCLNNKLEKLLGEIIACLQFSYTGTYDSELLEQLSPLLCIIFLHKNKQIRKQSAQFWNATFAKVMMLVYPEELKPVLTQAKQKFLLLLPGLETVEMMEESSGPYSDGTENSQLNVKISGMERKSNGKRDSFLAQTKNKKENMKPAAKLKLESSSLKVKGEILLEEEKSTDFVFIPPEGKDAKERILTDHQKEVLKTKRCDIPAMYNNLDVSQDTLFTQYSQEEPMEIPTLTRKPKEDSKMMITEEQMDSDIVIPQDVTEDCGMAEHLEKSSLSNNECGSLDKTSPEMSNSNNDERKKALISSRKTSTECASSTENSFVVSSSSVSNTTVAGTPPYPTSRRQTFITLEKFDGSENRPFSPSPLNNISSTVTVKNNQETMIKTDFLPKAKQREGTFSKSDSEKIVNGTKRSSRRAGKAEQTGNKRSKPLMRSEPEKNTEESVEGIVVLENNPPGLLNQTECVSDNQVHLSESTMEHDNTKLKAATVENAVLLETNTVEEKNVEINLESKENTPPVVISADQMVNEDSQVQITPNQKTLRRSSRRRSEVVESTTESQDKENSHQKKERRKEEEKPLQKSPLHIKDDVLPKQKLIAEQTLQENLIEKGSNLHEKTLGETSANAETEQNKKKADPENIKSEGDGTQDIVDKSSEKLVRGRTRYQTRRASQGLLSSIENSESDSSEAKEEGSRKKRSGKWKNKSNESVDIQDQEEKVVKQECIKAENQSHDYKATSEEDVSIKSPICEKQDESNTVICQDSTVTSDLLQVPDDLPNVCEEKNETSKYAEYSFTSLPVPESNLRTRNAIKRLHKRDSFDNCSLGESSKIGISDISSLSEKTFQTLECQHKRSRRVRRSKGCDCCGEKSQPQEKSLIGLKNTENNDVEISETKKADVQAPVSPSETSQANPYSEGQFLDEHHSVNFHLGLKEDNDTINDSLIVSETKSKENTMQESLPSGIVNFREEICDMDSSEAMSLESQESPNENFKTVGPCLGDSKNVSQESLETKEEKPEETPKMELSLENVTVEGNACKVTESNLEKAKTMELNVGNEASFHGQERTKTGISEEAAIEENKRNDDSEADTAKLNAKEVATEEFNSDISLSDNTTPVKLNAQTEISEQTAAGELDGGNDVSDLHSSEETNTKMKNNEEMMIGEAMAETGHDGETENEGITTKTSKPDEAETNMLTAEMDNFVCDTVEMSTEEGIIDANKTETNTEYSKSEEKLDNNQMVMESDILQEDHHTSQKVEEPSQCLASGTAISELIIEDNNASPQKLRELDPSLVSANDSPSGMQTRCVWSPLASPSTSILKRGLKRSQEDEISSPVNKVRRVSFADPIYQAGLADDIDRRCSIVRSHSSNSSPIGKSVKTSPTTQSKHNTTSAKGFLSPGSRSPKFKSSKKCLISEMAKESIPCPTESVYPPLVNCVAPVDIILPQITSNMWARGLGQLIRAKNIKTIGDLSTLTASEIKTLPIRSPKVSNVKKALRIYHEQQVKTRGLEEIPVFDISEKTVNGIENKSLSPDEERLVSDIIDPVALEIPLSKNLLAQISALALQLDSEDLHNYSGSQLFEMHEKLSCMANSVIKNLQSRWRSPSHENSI
Chain of UniProt Q9GZV5 (Q9GZV5 whole entry): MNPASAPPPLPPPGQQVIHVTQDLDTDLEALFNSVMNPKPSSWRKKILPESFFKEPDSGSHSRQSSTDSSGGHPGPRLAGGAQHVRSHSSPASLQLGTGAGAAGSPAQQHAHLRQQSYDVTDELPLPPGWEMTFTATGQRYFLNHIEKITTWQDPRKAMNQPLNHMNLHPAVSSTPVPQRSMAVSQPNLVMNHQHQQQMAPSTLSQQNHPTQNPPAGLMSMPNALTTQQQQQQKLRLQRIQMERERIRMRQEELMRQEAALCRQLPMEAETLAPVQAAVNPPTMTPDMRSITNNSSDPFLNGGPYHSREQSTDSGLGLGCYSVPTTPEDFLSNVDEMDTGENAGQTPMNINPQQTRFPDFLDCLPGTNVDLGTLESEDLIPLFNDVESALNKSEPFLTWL

response (average sum PSMs) ([1]; Detroit 562 cells, parent: est. 170): 250
response (average sum PSMs) ([1]; HEK293 cells, parent: est. 23): 22
response ([2]; Detroit 562 cells, replicate TEAD3 mut_1 (parent: TEAD3_WT_1), parent: 302): 118 PSMs
response ([2]; Detroit 562 cells, replicate TEAD3 mut_2 (parent: TEAD3_WT_2), parent: 297): 45 PSMs
response ([2]; Detroit 562 cells, replicate TEAD3 mut_3 (parent: TEAD3_WT_3), parent: 331): 26 PSMs
response ([2]; HEK293 cells, replicate TEAD3 mut_1): 2 PSMs
response ([2]; HEK293 cells, replicate TEAD3 mut_2 (parent: TEAD3_WT_2), parent: 3): 1 PSMs
response ([3]; Detroit 562 cells, replicate TEAD3 mut_1 (parent: TEAD3_WT_1), parent: 232): 132 PSMs
response ([3]; Detroit 562 cells, replicate TEAD3 mut_2 (parent: TEAD3_WT_2), parent: 898): 496 PSMs
response ([3]; Detroit 562 cells, replicate TEAD3 mut_3 (parent: TEAD3_WT_3), parent: 658): 396 PSMs
response ([3]; HEK293 cells, replicate TEAD3 mut_1 (parent: TEAD3_WT_1), parent: 258): 167 PSMs
response ([3]; HEK293 cells, replicate TEAD3 mut_2 (parent: TEAD3_WT_2), parent: 223): 195 PSMs
response ([3]; HEK293 cells, replicate TEAD3 mut_3 (parent: TEAD3_WT_3), parent: 216): 230 PSMs
response ([4]; Detroit 562 cells, replicate TEAD3 mut_1 (parent: TEAD3_WT_1), parent: 90): 6 PSMs
response ([4]; Detroit 562 cells, replicate TEAD3 mut_2 (parent: TEAD3_WT_2), parent: 76): 5 PSMs
response ([4]; Detroit 562 cells, replicate TEAD3 mut_3 (parent: TEAD3_WT_3), parent: 87): 8 PSMs
response ([4]; HEK293 cells, replicate TEAD3 mut_1 (parent: TEAD3_WT_1), parent: 380): 1 PSMs
response ([4]; HEK293 cells, replicate TEAD3 mut_2 (parent: TEAD3_WT_2), parent: 624): 3 PSMs
response ([4]; HEK293 cells, replicate TEAD3 mut_3 (parent: TEAD3_WT_3), parent: 950): 4 PSMs
response (average sum PSMs) ([5]; Detroit 562 cells, parent: est. 90): 75
response (average sum PSMs) ([5]; HEK293 cells, parent: est. 150): 190
response ([6]; replicate TEAD3 mut_1 (parent: TEAD3_WT_1), parent: 56): 1 PSMs
response ([6]; replicate TEAD3 mut_3 (parent: TEAD3_WT_3), parent: 92): 1 PSMs
response (average sum PSMs) ([7]; Detroit 562 cells, parent: est. 620): 960
response (average sum PSMs) ([7]; HEK293 cells, parent: est. 200): 230
Substance: WT TEAD3-Myc/Flag (from UniProt Q99594) … -> … (R>N; K>N; R>N; K>N; K>N; V>N; R>N; residue numbers not printed)
